Results taken from publication PMC12219679.
Where “and” joins values, the source holds several entries; their conditions need not be identical. Identical values can stand only once.

Tests used:
[1] = target: CD95-His (Sino Biological) (UniProt P25445)
[2] = target: IZ-CD95L (after His-tag cleavage with TEV protease) (human); experiment: SEC; Superdex 75 10/300 GL (Fig. 3A) or ENrich SEC 70 10 x 300 (Fig. 3B, C); PBS pH 7.4, 0.3 ml/min; sizes from a standard curve of protein standards; peak shares from Gaussian fits
biotin-IZ-CD95L (human) = experiment: as above
[3] = target: CD95-His (Sino Biological) (UniProt P25445); experiment: ELISA; CD95-His coated at 2 µg/ml in PBS overnight at 4 °C; biotin-IZ-CD95L or FLAG-CD95L 0.1 nM to 100 nM in 0.5% BSA/PBST, 2 h at r.t.; detected with anti-CD95L antibody and HRP secondary; 4-parameter logistic fit

Chain of CD95-His (Sino Biological) (P25445 26-173): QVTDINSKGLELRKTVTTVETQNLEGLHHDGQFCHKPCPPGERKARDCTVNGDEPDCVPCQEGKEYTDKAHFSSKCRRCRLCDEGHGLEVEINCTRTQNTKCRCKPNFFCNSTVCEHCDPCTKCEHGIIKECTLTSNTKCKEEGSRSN

Substance | Max (%) of apoptotic Hela WT cells (endogenous CD95), apoptosis dynamics assay, 1000 ng/ml ligand [1] | percent of the protein in the trimer peak (Peak B, Gaussian fit) [2] | stoichiometry N [2] | percent of the protein in the trimer peak (Peak B, Gaussian fit) (biotin-IZ-CD95L (human)) | stoichiometry N (biotin-IZ-CD95L (human)) | Kd [3]
IZ-CD95L (after His-tag cleavage with TEV protease) (ligand) | 72.9% | 55% | 3 and 2 | – | – | –
biotin-IZ-CD95L (ligand) | 75.7% | – | – | 48% | 3 and 2 | 680 pM
